# ± gives the standard deviation of the averaged measurements.
# Experiment: total protein half-life in vivo (active degradation + dilution); higher = more stable protein
# [1] = E. coli NCM3722 delta-clpP delta-lon delta-hslV, growth: N-lim chemostat, doubling time 6 h
# [2] = E. coli NCM3722 delta-clpP, growth: N-lim chemostat, doubling time 6 h
# [3] = E. coli NCM3722 delta-hslV, growth: N-lim chemostat, doubling time 6 h
# [4] = E. coli NCM3722 delta-lon, growth: N-lim chemostat, doubling time 6 h
# [5] = E. coli NCM3722 delta-smpB, growth: N-lim chemostat, doubling time 6 h
# [6] = wild type E. coli NCM3722, growth: C-lim chemostat, doubling time 3 h
# [7] = wild type E. coli NCM3722, growth: C-lim chemostat, doubling time 6 h
# [8] = wild type E. coli NCM3722, growth: C-lim chemostat, doubling time 12 h
# [9] = wild type E. coli NCM3722, growth: N-lim chemostat, doubling time 6 h
# [10] = wild type E. coli NCM3722, growth: N-lim chemostat, doubling time 12 h
# [11] = wild type E. coli NCM3722, growth: P-lim chemostat, doubling time 6 h
# [12] = wild type E. coli NCM3722, growth: P-lim chemostat, doubling time 12 h
Sequence,total protein half-life in vivo [1] [h],total protein half-life in vivo [2] [h],total protein half-life in vivo [3] [h],total protein half-life in vivo [4] [h],total protein half-life in vivo [5] [h],total protein half-life in vivo [6] [h],total protein half-life in vivo [7] [h],total protein half-life in vivo [8] [h],total protein half-life in vivo [9] [h],total protein half-life in vivo [10] [h],total protein half-life in vivo [11] [h],total protein half-life in vivo [12] [h]
MLNTLIVGASGYAGAELVTYVNRHPHMNITALTVSAQSNDAGKLISDLHPQLKGIVDLPLQPMSDISEFSPGVDVVFLATAHEVSHDLAPQFLEAGCVVFDLSGAFRVNDATFYEKYYGFTHQYPELLEQAAYGLAEWCGNKLKEANLIAVPGCYPTAAQLALKPLIDADLLDLNQWPVINATSGVSGAGRKAAISNSFCEVSLQPYGVFTHRHQPEIATHLGADVIFTPHLGNFPRGILETITCRLKSGVTQAQVAQVLQQAYAHKPLVRLYDKGVPALKNVVGLPFCDIGFAVQGEHLIIVATEDNLLKGAAAQAVQCANIRFGYAETQSLI,3.94 ± 0.2,> 8,3.34 ± 0.5,4.24 ± 0.74,3.24 ± 0.057,2.67 ± 0.42,5.7 ± 1.4,9.58 ± 0.43,3.24,5.58,5.06 ± 0.19,9.57 ± 0.58
MLPDSSVRLNKYISESGICSRREADRYIEQGNVFLNGKRATIGDQVKPGDVVKVNGQLIEPREAEDLVLIALNKPVGIVSTTEDGERDNIVDFVNHSKRVFPIGRLDKDSQGLIFLTNHGDLVNKILRAGNDHEKEYLVTVDKPITEEFIRGMSAGVPILGTVTKKCKVKKEAPFVFRITLVQGLNRQIRRMCEHFGYEVKKLERTRIMNVSLSGIPLGEWRDLTDDELIDLFKLIENSSSEVKPKAKAKPKTAGIKRPVVKMEKTAEKGGRPASNGKRFTSPGRKKKGR,6.01 ± 1.2,3.751 ± 0.021,3.44 ± 0.14,5.61 ± 0.41,3.43 ± 0.087,2.2 ± 0.11,4.11 ± 0.4,5.93 ± 0.93,3.29 ± 0.094,5.37 ± 0.073,2.59 ± 0.18,5.07 ± 0.21
MLPFLKAPADAPLMTDKYEIDARYRYWRRHILLTIWLGYALFYFTRKSFNAAVPEILANGVLSRSDIGLLATLFYITYGVSKFVSGIVSDRSNARYFMGIGLIATGIINILFGFSTSLWAFAVLWVLNAFFQGWGSPVCARLLTAWYSRTERGGWWALWNTAHNVGGALIPIVMAAAALHYGWRAGMMIAGCMAIVVGIFLCWRLRDRPQALGLPAVGEWRHDALEIAQQQEGAGLTRKEILTKYVLLNPYIWLLSFCYVLVYVVRAAINDWGNLYMSETLGVDLVTANTAVTMFELGGFIGALVAGWGSDKLFNGNRGPMNLIFAAGILLSVGSLWLMPFASYVMQATCFFTIGFFVFGPQMLIGMAAAECSHKEAAGAATGFVGLFAYLGASLAGWPLAKVLDTWHWSGFFVVISIAAGISALLLLPFLNAQTPREA,7.27,6.56 ± 0.2,5.26,5.43 ± 0.18,6.52 ± 0.92,2.81,6.04,10.4,5.01 ± 2.2,> 16,–,10.6 ± 1.1
MLQFILRRLGLVIPTFIGITLLTFAFVHMIPGDPVMIMAGERGISPERHAQLLAELGLDKPMWQQYLHYIWGVMHGDLGISMKSRIPVWEEFVPRFQATLELGVCAMIFATAVGIPVGVLAAVKRGSIFDHTAVGLALTGYSMPIFWWGMMLIMLVSVHWNLTPVSGRVSDMVFLDDSNPLTGFMLIDTAIWGEDGNFIDAVAHMILPAIVLGTIPLAVIVRMTRSSMLEVLGEDYIRTARAKGLTRMRVIIVHALRNAMLPVVTVIGLQVGTLLAGAILTETIFSWPGLGRWLIDALQRRDYPVVQGGVLLVATMIILVNLLVDLLYGVVNPRIRHKK [P0AEF8],6.91 ± 0.36,6.54 ± 1.1,5.46 ± 0.53,5.39 ± 0.46,5.95 ± 0.45,3.53 ± 0.4,6.656 ± 0.039,13.1 ± 1.5,6.42 ± 0.19,13 ± 3.1,5.96 ± 0.41,11.5 ± 1
MLQISHLYADYGGKPALEDINLTLESGELLVVLGPSGCGKTTLLNLIAGFVPYQHGSIQLAGKRIEGPGAERGVVFQNEGLLPWRNVQDNVAFGLQLAGIEKMQRLEIAHQMLKKVGLEGAEKRYIWQLSGGQRQRVGIARALAANPQLLLLDEPFGALDAFTRDQMQTLLLKLWQETGKQVLLITHDIEEAVFMATELVLLSSGPGRVLERLPLNFARRFVAGESSRSIKSDPQFIAMREYVLSRVFEQREAFS,4.76,–,–,–,–,–,–,–,–,–,–,–
MLQIVGALILLIAGFAILRLLFRALISTASALAGLILLCLFGPALLAGYITERITRLFHIRWLAGVFLTIAGMIISFMWGLDGKHIALEAHTFDSVKFILTTALAGGLLAVPLQIKNIQQNGITPEDISKEINGYYCCFYTAFFLMACSACAPLIALQYDISPSLMWWGGLLYWLAALVTLLWAASQIQALKKLTCAISQTLEEQPVLNSKSWLTSLQNDYSLPDSLTERIWLTLISQRISRGELREFELADGNWLLNNAWYERNMAGFNEQLKENLSFTPDELKTLFRNRLNLSPEANDDFLDRCLDGGDWYPFSEGRRFVSFHHVDELRICASCGLTEVHHAPENHKPDPEWYCSSLCRETETLCQEIYERPYNSFISDATANGLILMKLPETWSTNEKMFASGGQGHGFAAERGNHIVDRVRLKNARILGDNNARNGADRLVSGTEIQTKYCSTAARSVGAAFDGQNGQYRYMGNNGPMQLEVPRDQYAGAVETMRNKIREGKVEER,–,0.668,–,–,–,–,–,–,–,0.674,–,2.58 ± 0.79

# — the supplement of paper PMC11246515
